For test [1], the target named is T1, human HER3 expressed on cells (HEK293 HER3 O/E cells) (human, UniProt P21860 20-1342).
T1 construct: Also used here for HER3 on U2OS cells of the PathHunter kit and on cancer cell lines; also called HEK293 cells transfected with vector encoding human HER3; human HER3-expressing cells
Briefly: flow cytometry, HEK293 cells overexpressing human HER3, 20 ug/ml antibody, FITC anti-Fc secondary; same antibody on WT HEK293: 8.15. Background: A flow cytometer gives signals particle by particle.

Test [2] addresses T1, human HER3 expressed on cells (HEK293 …). The experiment in a line: flow cytometry on HEK293T HER3 O/E cells, 10 ug antibody as printed, FITC-conjugated anti-Fc secondary. Here is the method:
The cells were washed with buffer (PBS with 2 mM EDTA and 0.5% BSA) and resuspended in FITC-conjugated anti-FC antibody (Invitrogen, USA) at 10 μg/ml for 20 min at 4° C. Cells were washed again and resuspended in 200 μL of FACS flow buffer (PBS with 5 mM EDTA) for flow cytometric analysis using MACSQuant 10 (Miltenyi Biotec, Germany). Unstained WT and transfected HEK293 cells were included in the analysis as negative controls. After acquisition, all raw data were analyzed using Flowlogic software. Cells were gated using forward and side scatter profile percentage of positive cells was determined for native and overexpressing cell populations.

The target in test [3] is T2, His-tagged human HER3 (human, UniProt P21860 20-643).
T2 construct: Antigen of the BLI experiments and of the HER2-Fc dimerisation ELISA; also called HER3 His; not shown: His tag
The experiment in a line: BLI (Octet QK384), antibody captured on AHC sensors, His-tagged human HER3 in solution, without NRG1. In general terms: In BLI a coated tip is dipped into the sample, and binding shifts an interference pattern.

Test [4] has as its target T1, human HER3 expressed on cells (HEK293 …). The experiment in a line: flow cytometry, HEK293 cells overexpressing human HER3, 20 ug/ml antibody, FITC anti-Fc secondary; same antibody on WT HEK293: 1.91.
For test [5] the target is unchanged. The experiment in a line: flow cytometry, HEK293 cells overexpressing human HER3, 20 ug/ml antibody, FITC anti-Fc secondary; same antibody on WT HEK293: 17.31. Here is the method: (§1) The cells were washed thrice with FACS buffer (PBS with 5 mM EDTA and 0.5% BSA) and resuspended in FITC-conjugated anti-FC antibody (Invitrogen, USA) for 40 min at 2-8° C. Cells were washed again and resuspended in 200 μL of FACS flow buffer (PBS with 5 mM EDTA) for flow cytometric analysis using MACSQuant 10 (Miltenyi Biotec, Germany). After acquisition, all raw data were analyzed using Flowlogic software. Cells were gated using forward and side scatter profile percentage of positive cells was determined for native and overexpressing cell populations.

Test [6] has the same target. Described as above. Here is the method: as §1
This is another data set of the same source.

The next test deals with T3, human EGFR (human, UniProt P00533 25-645).
T3 construct: also called human HER1 (EGFR) (Sino Biological Inc.)
The experiment in a line: ELISA, plate coated with 0.1 ug/ml human EGFR, antibody titrated, absorbance 450 nm. Here is the method:
(§2) ELISAs were used to determine the binding specificity of the antibodies. The antibodies were analysed for binding to human HER3 polypeptide, as well as respective mouse, rat and monkey homologues of HER3 (Sino Biological Inc., China). The antibodies were also analysed for their ability to bind to human EGFR and human HER2 (Sino Biological Inc., China).
(§3) ELISAs were carried out according to standard protocols. Briefly, 96-well plates (Nunc, Denmark) were coated with 0.1 μg/ml of target polypeptide in phosphate-buffered saline (PBS) for 16 h at 4° C. After blocking for 1 h with 1% BSA in Tris buffer saline (TBS) at room temperature, the anti-HER3 antibody was serially diluted with the highest concentration being 10 μg/ml, and added to the plate. Post 1 h incubation at room temperature, plates were washed three times with TBS containing 0.05% Tween 20 (TBS-T) and were then incubated with a HRP-conjugated […] antibody (Life Technologies, Inc., USA) for 1 h at room temperature. After washing, plates were developed with colorimetric detection substrate 3,3′,5,5′-tetramethylbenzidine (Turbo-TMB; Pierce, USA) for 10 min. The reaction was stopped with 2M H₂SO₄, and OD was measured at 450 nm.
On the technique in general: An ELISA detects its analyte on a solid surface through an enzyme-linked reagent.

In the next test the target is T4, human HER2 (human, UniProt P04626 23-652).
T4 construct: also called human HER2 (Sino Biological Inc.)
Briefly: ELISA, plate coated with 0.1 ug/ml human HER2, antibody titrated, absorbance 450 nm. Here is the method: as §2, §3

The target of a further test is T5, rat HER3 (rat, UniProt Q62799 20-641, limits assumed).
T5 construct: also called rat homologue of HER3 (Sino Biological Inc.); R. norvegicus HER3
The experiment in a line: ELISA, plate coated with 0.1 ug/ml rat HER3, antibody titrated, absorbance 450 nm. Here is the method:
as §2, §3

The target of test [7] is T2, His-tagged human HER3. Briefly: BLI (Octet QK384), antibody on anti-human IgG capture tips, His-tagged human HER3 in solution, global one-site fit. Here is the method: (§4) The anti-HER3 antibody clones in IgG1 format were analysed for binding affinity to human HER3. Bio-Layer Interferometry (BLI) experiments were performed using the Octet QK384 system (ForteBio). anti-Human IgG Capture (AHC) Octet sensor tips (Pall ForteBio, USA) were used to anti-HER3 antibodies (25 nM). All measurements were performed at 25° C. with agitation at 1000 rpm. […] Sensograms were referenced for buffer effects and then fitted using the Octet QK384 user software (Pall ForteBio, USA). Kinetic responses were subjected to a global fitting using a one site binding model to obtain values for association (Kₒₙ), dissociation (Koff) rate constants and the equilibrium dissociation constant (KD). Only curves that could be reliably fitted with the software (R²>0.90) were included in the analysis.

The next test deals with T6, mouse HER3 (mouse, UniProt Q61526 20-641).
T6 construct: also called mouse homologue of HER3 (Sino Biological Inc.); M. musculus HER3
Briefly: ELISA, plate coated with 0.1 ug/ml mouse HER3, antibody titrated, absorbance 450 nm. Here is the method:
as §2, §3

Test [8] deals with T2, His-tagged human HER3. Briefly: BLI (Octet QK384), antibody on anti-human IgG capture tips, His-tagged human HER3 35-278 nM, global 1:1 fit. Here is the method:
as §4

For test [9], the target named is T2, His-tagged human HER3. The experiment in a line: BLI (Octet QK384), antibody on anti-human IgG capture tips, His-tagged human HER3 in solution, global 1:1 fit, R^2 = 0.9946, kon Error 5.99E+03; Response 0.119 / 0.2877 / 0.4777 / 0.6639 at 35 / 69 / 139 / 278 nM. Here is the method: as §4
The target of test [10] is T2, His-tagged human HER3. The experiment in a line: BLI (Octet QK384), antibody on anti-human IgG capture tips, His-tagged human HER3 in solution, global 1:1 fit, R^2 = 0.9957, kon Error 3.54E+03; Response 0.0338 / 0.0911 / 0.1967 / 0.3885 at 35 / 69 / 139 / 278 nM. Here is the method: as §4
The target of test [11] is T2, His-tagged human HER3. Briefly: BLI (Octet QK384), antibody on anti-human IgG capture tips, His-tagged human HER3 35-278 nM, global 1:1 fit; kdis Error 1.16E-04. Here is the method: as §4
For test [12], the target named is T2, His-tagged human HER3. The experiment in a line: BLI (Octet QK384), antibody on anti-human IgG capture tips, His-tagged human HER3 in solution, global 1:1 fit, R^2 = 0.9915, kon Error 7.36E+03; Response 0.114 / 0.2569 / 0.4134 / 0.5768 at 35 / 69 / 139 / 278 nM. Here is the method:
as §4

The target in test [13] is T2, His-tagged human HER3. The experiment in a line: BLI (Octet QK384), antibody on anti-human IgG capture tips, His-tagged human HER3 in solution, global 1:1 fit, R^2 = 0.9951, kon Error 5.36E+03; Response 0.0037 / 0.1082 / 0.2868 / 0.3903 at 35 / 69 / 139 / 278 nM. Here is the method: as §4
Test [14] concerns the target T2, His-tagged human HER3. The experiment in a line: BLI (Octet QK384), antibody on anti-human IgG capture tips, His-tagged human HER3 35-278 nM, global 1:1 fit; kdis Error 1.00E-04. Here is the method: as §4
In test [15] the target is T2, His-tagged human HER3. The experiment in a line: BLI (Octet QK384), antibody on anti-human IgG capture tips, His-tagged human HER3 in solution, global 1:1 fit, R^2 = 0.9954, kon Error 4.57E+03; Response 0.0786 / 0.1929 / 0.3283 / 0.5147 at 35 / 69 / 139 / 278 nM. Here is the method:
as §4

Positions count from the first letter of the chain named. Some results are limits rather than exact numbers.

By Kd is commonly meant the concentration at which binding is half-saturated. Read a low Kd as tighter binding. One may read the koff as a measure of how fast the partners let go of each other. The term kon denotes a measure of how fast the partners come together. A high value points to fast association.

T5 sequence (Q62799 20-641 limits assumed): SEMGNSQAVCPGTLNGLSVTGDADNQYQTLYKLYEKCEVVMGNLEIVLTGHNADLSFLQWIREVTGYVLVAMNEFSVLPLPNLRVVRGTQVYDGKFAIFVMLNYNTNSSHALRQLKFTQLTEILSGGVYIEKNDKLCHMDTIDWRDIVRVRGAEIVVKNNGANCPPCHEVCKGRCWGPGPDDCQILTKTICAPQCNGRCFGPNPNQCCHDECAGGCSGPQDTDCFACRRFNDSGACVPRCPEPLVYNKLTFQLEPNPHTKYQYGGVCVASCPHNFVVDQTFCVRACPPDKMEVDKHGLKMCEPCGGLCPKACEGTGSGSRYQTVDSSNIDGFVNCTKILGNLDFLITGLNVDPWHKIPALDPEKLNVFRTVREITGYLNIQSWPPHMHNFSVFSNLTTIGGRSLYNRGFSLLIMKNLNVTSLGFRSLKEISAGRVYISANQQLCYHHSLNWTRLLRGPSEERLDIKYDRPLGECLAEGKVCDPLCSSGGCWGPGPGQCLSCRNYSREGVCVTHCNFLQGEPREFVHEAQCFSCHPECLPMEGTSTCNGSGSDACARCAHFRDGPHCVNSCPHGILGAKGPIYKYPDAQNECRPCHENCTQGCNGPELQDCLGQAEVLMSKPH
T6 sequence (Q61526 20-641 limits assumed): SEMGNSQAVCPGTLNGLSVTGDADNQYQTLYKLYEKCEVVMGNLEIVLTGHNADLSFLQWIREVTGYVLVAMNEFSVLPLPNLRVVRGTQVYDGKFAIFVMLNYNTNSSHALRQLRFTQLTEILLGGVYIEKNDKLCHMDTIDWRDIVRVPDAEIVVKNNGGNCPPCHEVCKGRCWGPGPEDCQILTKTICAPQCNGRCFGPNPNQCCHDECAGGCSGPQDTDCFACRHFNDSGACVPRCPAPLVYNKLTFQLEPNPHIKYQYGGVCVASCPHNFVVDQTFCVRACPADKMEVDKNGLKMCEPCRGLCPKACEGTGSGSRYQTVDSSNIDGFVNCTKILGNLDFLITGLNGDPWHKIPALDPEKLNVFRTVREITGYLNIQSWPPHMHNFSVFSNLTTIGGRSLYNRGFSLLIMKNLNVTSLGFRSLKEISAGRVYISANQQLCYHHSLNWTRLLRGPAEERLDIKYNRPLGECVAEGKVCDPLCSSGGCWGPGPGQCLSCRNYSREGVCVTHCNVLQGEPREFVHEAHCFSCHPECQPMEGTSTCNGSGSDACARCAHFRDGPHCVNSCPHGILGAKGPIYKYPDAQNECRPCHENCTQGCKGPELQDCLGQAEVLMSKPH

B1: LJM716 (antibody, V domains shown)
VH: EVQLLESGGGLVQPGGSLRLSCAASGFTFSSYAMSWVRQAPGKGLEWVSAINSQGKSTYYADSVKGRFTISRDNSKNTLYLQMNSLRAEDTAVYYCARWGDEGFDIWGQGTLVTVSS
VL: DIQMTQSPSSLSASVGDRVTITCRASQGISNWLAWYQQKPGKAPKLLIYGASSLQSGVPSRFSGSGSGTDFTLTISSLQPEDFATYYCQQYSSFPTTFGQGTKVEIK
For B1, in [1], the “% Parent (HE3 positive)” value was determined as 98.7%. The “% Parent (HER3 positive)” value in [2] is 74.4%. In the test with His-tagged human HER3 [3], this molecule gave a Kd of under 0.001 nM, a koff of under 1e-07 s⁻¹ and a kon of 79800 M⁻¹ s⁻¹. Further, the “% Parent (HER3 positive)” value in [4] was 99.5%.

B2: anti-HER3 clone 4-35-B2 IgG1 (antibody, V domains shown)
VH: EIQLQQSGPELVKPGASVKVSCKASGYSFTDYNMYWVKQSHGKSLEWIGHINPYNGGTTYNQKFKGRATLTVDKSSSTAFMHLNSLTSEDSAVYFCVSLRWGAMDYWGQGTSVTVSS
VL: QIVLTQSPALMSASPGEKVTMTCSASSSVSYMYWYQQKPRSSPKPWIYLTSNLASGVPARFSGSGSGTSYSLTISSMEAEDAATYYCQQWNSNPYTFGGGTKLEIKR
notes: Human-mouse chimeric IgG1/kappa
With B2, the “% Parent (HE3 positive)” value in test [5] and in test [6] was 43.2% each time. Also, the binding result in the test with human EGFR, in the test with human HER2, with rat HER3 and with mouse HER3 was “binds” each time. This molecule displayed a Kd in the test with His-tagged human HER3 [7] of 80.9 nM.

B3: anti-HER3 clone 10D1_c93 IgG1 (antibody, V domains shown)
VH: DVQLQEWGAGLLKPSETLSLTCAVTGYSITSGYSWHWIRQFPGNGLEWIGSIHYSGGTNYNPSLKSRITISRDTSKNQFSLRLSSVTAADTAVYFCARMTTAPRYPFDYWGQGTLVTVSS
VL: DIVMTQSPSSLSASVGDRVTITCKASQIVGSNVAWYQQKPGKSPKPLIYSASYLYSDVPSRFSGSGSGTDFTMTISSLQPEDVATYYCQQYSSHPLTFGPGTKVEIKR
notes: Humanised 10D1 variant, IgG1/kappa
B3 registered a koff with His-tagged human HER3 [8] of under 1e-07 s⁻¹. In the test with His-tagged human HER3 [9], the kon amounted to 188000 M⁻¹ s⁻¹. Further, in the test with His-tagged human HER3 [7], the Kd is under 0.001 nM.

B4: anti-HER3 clone 10D1_c85o2 IgG1 (antibody, V domains shown)
VH: B3 VH with N44K, H53R, R82K, S84G, M99G
VL: B3 VL with S52R, L54Q, D57G, S60F, M73L
notes: Humanised 10D1 variant, IgG1/kappa; also called 10D1_c8502
For B4, in the test with His-tagged human HER3 [10], the kon worked out at 97400 M⁻¹ s⁻¹. Further, in the test with His-tagged human HER3 [11], the koff came out at 0.00168 s⁻¹. Further, binding with His-tagged human HER3 [7] was put at a Kd of 17.3 nM.

B5: anti-HER3 clone 10D1_c87 IgG1 (antibody, V domains shown)
VH: B3 VH
VL: B3 VL with K39M, K45E
notes: as for B3
With B5, the koff with His-tagged human HER3 [8] is under 1e-07 s⁻¹. Besides, the kon with His-tagged human HER3 [12] was found to be 188000 M⁻¹ s⁻¹. Further, the Kd in the test with His-tagged human HER3 [7] was under 0.001 nM.

B6: anti-HER3 clone 10D1_c76 IgG1 (antibody, V domains shown)
VH: B3 VH with R82K
VL: B3 VL with V15G, S31Y, G64A, M73L, T85E, Y87F
notes: as for B3
Molecule B6 had a koff in the test with His-tagged human HER3 [8] of under 1e-07 s⁻¹. Moreover, the kon in the test with His-tagged human HER3 [13] came to 148000 M⁻¹ s⁻¹. Besides, in the test with His-tagged human HER3 [7], the Kd was under 0.001 nM.

B7: anti-HER3 clone 10D1_11B IgG1 (antibody, V domains shown)
VH: B3 VH with T25Y, F41P, N44K, I68V, R82K, F95Y
VL: B3 VL with L54G, M73L, Q79R
notes: Humanised 10D1 variant, IgG1/kappa; also called v11b78L; C78 v11b
For B7, in the test with His-tagged human HER3 [14], the koff came to 6.01e-05 s⁻¹. The kon with His-tagged human HER3 [15] was 147000 M⁻¹ s⁻¹. For the same molecule, in the test with His-tagged human HER3 [7], binding was characterised by a dissociation constant (Kd) of 0.41 nM.

The values are drawn from patent US20250122303A1 (HUMMINGBIRD BIOSCIENCE PTE, published 2025).
